Patent US8450280B2, “Activation of peptide prodrugs by hK2” (GenbSpera, Inc., priority 1999, dated 2013)

B1: SLPI: protease inhibitor present in the prostate (protein)
chain: SGKSFKAGVCPPKKSAQCLRYKKPECQSDWQCPGKKRCCPDTCGIKCLDPVDTPNPTRRKPGKCPVTYGQCLMLNPPNFCEMDGQCKRDLKCCMGMCGKSCVSPVKA
B2: ACT: α1-antichymotrypsin purified from human blood plasma (protein)
chain: HPNSPLDEENLTQENQDRGTHVDLGLASANVDFAFSLYKQLVLKAPDKNVIFSPLSISTALAFLSLGAHNTTLTEILKGLKFNLTETSEAEIHQSFQHLLRTLNQSSDELQLSMGNAMFVKEQLSLLDRFTEDAKRLYGSEAFATDFQDSAAAKKLINDYVKNGTRGKITDLIKDLDSQTMMVLVNYIFFKAKWEMPFDPQDTHQSRFYLSKKKWVMVPMMSLHHLTIPYFRDEELSCTVVELKYTGNASALFILPDQDKMEEVEAMLLPETLKRWRDSLEFREIGELYLPKFSISRDYNLNDILLQLGIEEAFTSKADLSGITGARNLAVSQVVHKAVLDVFEEGTEASAATAVKITLLSALVETRTIVRFNRPFLMIIVPTDTQNIFFMSKVTNPKQA
B3: PCl: protein C inhibitor (PCI), plasma protease inhibitor (serpin) (protein)
chain: HRHHPREMKKRVEDLHVGATVAPSSRRDFTFDLYRALASAAPSQSIFFSPVSISMSLAMLSLGAGSSTKMQILEGLGLNLQKSSEKELHRGFQQLLQELNQPRDGFQLSLGNALFTDLVVDLQDTFVSAMKTLYLADTFPTNFRDSAGAMKQINDYVAKQTKGKIVDLLKNLDSNAVVIMVNYIFFKAKWETSFNHKGTQEQDFYVTSETVVRVPMMSREDQYHYLLDRNLSCRVVGVPYQGNATALFILPSEGKMQQVENGLSEKTLRKWLKMFKKRQLELYLPKFSIEGSYQLEKVLPSLGISNVFTSHADLSGISNHSNIQVSEMVHKAVVEVDESGTRAAAATGTIFTFRSARLNSQRLVFNRPFLMFIVDNNILFLGKVNRP

Biological target: T1, hK2 (Homo sapiens, UniProt P20151)
T1 construct: made in house
Test: Inhibition of hK2 by protease inhibitors (substrate H-Pro-Phe-Arg-AMC)
Type: biochemical
Conditions: for Activity (%) of hK2, percentage of inhibitor-free control: 10 minutes of incubation, 8.3 nM hK2, 90 μM substrate
Protocol: Activity of hK2 (1.6 pmol) was monitored using the substrate H-Pro-Phe-Arg-AMC (SEQ ID NO: 55) (90 μM). Inhibitors, at commonly used concentrations, and hK2 (8.3 nM) were mixed and proteolysis of 90 μM H-Pro-Phe-Arg-AMC (SEQ ID NO: 55) was followed up to 20 minutes, starting directly or 10 minutes after mixing the enzyme with various inhibitors. Inhibition was evaluated by comparison with […] controls.
The proteolytic activity is expressed in percentage of inhibitor-free control after 10 minutes of incubation.
Therefore, PPACK can be used to obtain fast irreversible inhibition of hK2.

T1 sequence (P20151 25-261): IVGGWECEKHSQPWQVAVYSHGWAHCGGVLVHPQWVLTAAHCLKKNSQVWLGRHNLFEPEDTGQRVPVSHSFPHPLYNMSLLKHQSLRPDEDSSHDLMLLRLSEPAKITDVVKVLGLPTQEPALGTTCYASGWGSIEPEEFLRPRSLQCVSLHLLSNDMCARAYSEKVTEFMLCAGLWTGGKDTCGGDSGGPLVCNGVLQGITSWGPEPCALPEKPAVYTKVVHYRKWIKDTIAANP

Row | Molecule | inhibition of hK2 (in words) (8 nM hK2, 90 μM substrate) | Activity (%) of hK2, percentage of inhibitor-free control (inhibitor 0.08 μM) [%] | Activity (%) of hK2, percentage of inhibitor-free control (inhibitor 4 μM) [%] | inhibition of the hK2 activity (in words) (100-fold molar excess, 20 minute measurement time) | Activity (%) of hK2, percentage of inhibitor-free control (inhibitor 0.8 μM) [%] | Activity (%) of hK2, percentage of inhibitor-free control (inhibitor 0.016 μM) [%]
1 | B1 | inhibited hK2 weakly | 92 | 35 |  |  | 
2 | B2 |  |  |  | no inhibition | 100 | 
3 | B3 |  | 0 |  |  |  | 50
